Entries after “also recorded” stand apart in the source; their conditions may differ.
Columns and labels:
MDA-MB-231 cells = test: Doxycycline-inducible Tet-on expression of C or C1-2 in MDA-MB-231 cells; type: cell-based, human
Protocol: (§1) FIG. 4 Inducible Expression System. Scheme of doxycycline inducible Tet-on system to express either C (aa. 157-335) or C1-2 (aa. 221-331). C1-2 (DD containing fragment) upon addition of doxycycline (both in vitro and in vivo).
(§2) FIG. 5 Confirmation of C1-2 expression and cancer cell selective killing. (A) Tet-on C or C1-2 transduced MDA-MB-231 cells were treated with 2 μg/mL doxycycline (2 μg/mL) for 24 h. Cell lysates were collected for western blot. Confirming the expression of C or C1-2 expression. (B) Tet-on C or C1-2 transduced MDA-MB-231 cells were treated with 0.2 or 2 μg/mL doxycycline for 72 h. Cell viability was measured by Calcein AM. […] (C) Tet-on C1-2 transduced MCF10A cells were treated with 2 μg/mL doxycycline. Cell viability was measured at various time points by Calcein AM.
FIG. 6 In vitro testing MDA-MB-231 cell death post C1-2 induction. (A) Various single colony of Tet-on C1-2 transduced MDA-MB-231 cells were treated with 2 μg/mL doxycycline (2 μg/mL) for 72 h. Cell viability was measured by Calcein AM. Different colonies have different susceptibility of death post C1-2 induction. (B) C1-2 expression of various single colony of Tet-on C1-2 transduced MDA-MB-231 cells post doxycycline treatment were measured by western blot (C), and the level at 24 h was correlated with % death (normalized by full length). […] (C) Immunoblot of C1-2 and full length (FL) CD95 expression for various colony.

MDA-MB-231 tumors = test: In vivo testing of Tet-on C1-2 transduced MDA-MB-231 tumors; design: species or system nude mouse
Protocol: FIG. 7 In vivo testing MDA-MB-231 tumor regression post C1-2 induction. (A) Tumor weight. (B) Tumor cells (millions) count (post-ficoll gradient). (C) Percent immune cells in tumors (mouse CD45+) measurement by flow cytometry.
In Vivo testing. Mammary glands of a nude mouse model were injected with 2 million Tet-on C1-2 transduced MDA-MB-231 cells. Once tumors reach approximately 80 to 100 mm3 mice are feed either a doxycycline diet or are injected intraperitoneally with doxycycline (50 mg/ml) every 5 days to induce Tet-on system. Tumor growth is monitored. Tumors are isolated and digested on day 21 post doxycycline treatment and tumor weights are measured, tumor cell numbers are counted, and CD45+ cells are measured by flow cytometry.

MCF10A cells = test: Doxycycline-inducible Tet-on expression of C1-2 in MCF10A cells; type: cell-based; conditions: doxycycline 2 μg/mL
Protocol: as §1, §2

cancer cells = test: CD95 protein overexpression in cancer cells, viability in absence of ELANE (calcein-AM); type: cell-based, human; conditions: for cancer cell death/toxicity on expression in the absence of ELANE: transient overexpression
Protocol: FIGS. 1A-1K. ELANE cleaves CD95 to selectively kill cancer cells. (A): Heatmap summary of ELANE's effects on survival, stress, and apoptosis pathways in cancer cells and healthy cells. (B-C): Cancer cells were treated with ELANE (100 nM) and CD95 cleavage was assessed by western blotting using anti-N-terminal (B) or anti-C-terminal antibodies (C). *, lower molecular weight CD95 fragment. (D): Cancer cells or non-cancer cells were transduced to overexpress CD95 proteins, and effects on ELANE-mediated apoptosis were quantified by ANXAS at 30 min. n=2/group. See FIG. 1I for transduction and CD95 over-expression. (E): Cleavage of recombinant human CD95 N-terminal (aa 1-173) or C-terminal (aa 212-335) proteins by ELANE was assessed by SDS-PAGE and Coomassie blue staining. (F): Bands from (E) were digested with trypsin and analyzed by mass spectrometry to identify putative ELANE cleavage sites (i.e., peptides with non-tryptic ends). Major non-tryptic peptides were quantified by ion chromatograms. (G): Schematic of ELANE cleavage sites in CD95. […] (H): Cleavage of recombinant peptides corresponding to aa 214-231 and aa 317-335 in CD95 by ELANE was monitored by mass spectrometry. (I): Cancer cells or non-cancer cells were treated with fluorescein-labeled ELANE for 10 min and uptake was visualized by immunofluorescence. (J): ELANE catalytic activity in cancer cell lysates following exposure to ELANE for 30 mins in the presence and absence of Dynasore (60 μM endocytosis inhibitor). Effect of Dynasore on cancer cell killing capability of ELANE (measured by calcein-AM). n=6/group. (K): Cancer cells or non-cancer cells were transduced to overexpress various CD95 proteins, and cell viability in the absence of ELANE was determined by calcein-AM. n=10/group. *, p<0.05 Student's t-test.
In vitro cell viability assays. […] Luminescence was measured using a Victor X3 luminometer (PerkinElmer).
CD95 overexpression studies. Polycistronic adenoviral vectors were prepared to express the human and mouse CD95 sequences followed by the Encephalomyocarditis virus (EMCV) internal ribosome entry site and dTomato sequence under the control of the cytomegalovirus (CMV) promoter (VectorBuilder). Human and murine cancer cells or normal or non-cancer cells were transduced to over-express full-length CD95, N-terminal CD95 (human: aa 1-209; mouse: aa 1-204), C-terminal CD95 (human: aa 212-335; mouse: aa 204-327), or C-terminal CD95 that mimicked ELANE cleavage at site 1 (human: aa 221-335), site 2 (human: aa 212-331), or both sites (aa 221-331). Cancer cells or normal or non-cancer cells were transduced with adenoviruses at an MOI of 50-250 depending on cell type, and expression of dTomato and CD95 (human: 558814; mouse, mouse: 565130, BD Biosciences) were confirmed by flow cytometry. A vector encoding GFP (Vector Builders) was used as a control.

B1: C1-2: hCD95 C-terminal peptide aa 221-331 mimicking ELANE cleavage at both sites; death domain containing fragment (protein)
chain: AINLSDVDLSKYITTIAGVMTLSQVKGFVRKNGVNEAKIDEIKNDNVQDTAEQKVQLLRNWHQLHGKKEAYDTLIKDLKKANLCTLAEKIQTIILKDITSDSENSNFRNEI
selective killing of cancer cells by expression (MDA-MB-231 cells; FIG. 5A-5C): can selectively kill cancer cells
cell death/apoptosis on doxycycline-induced expression (MDA-MB-231 cells; Tet-on MDA-MB-231, doxycycline 0.2 or 2 μg/mL, 72 h, Calcein AM): induction of cell death in MDA-MB-231 cells; also recorded: underwent apoptosis; also recorded: caused MDA-MB-231 cell death
correlation of expression level with extent of apoptosis/death (MDA-MB-231 cells; different colonies of MDA-MB-231 cells): significantly and positively correlated; also recorded: correlates with MDA-MB-231 cell death
tumor growth after doxycycline induction (MDA-MB-231 tumors; doxycycline IP or through the food): induced MDA-MB-231 tumor regression; also recorded: lessened tumor growth
CD45+ immune cells in tumors (MDA-MB-231 tumors; flow cytometry): increased the number of CD45^+ immune cells in tumors
cell death/apoptosis on doxycycline-induced expression (MCF10A cells): failed to induce apoptosis; also recorded: did not cause cell death
killing mechanism induced by expression (cancer cells; MDA-MB-231 cells): induced the same killing mechanism as treating these cells with ELANE
cancer cell death/toxicity on expression in the absence of ELANE (cancer cells): toxic
cancer cell death/toxicity on expression in the absence of ELANE (cancer cells; listed as aa. 221-331 of SEQ ID NO:1): induced cancer cell death in the absence of ELANE

Reference: patent US12611443B2, “Methods and compositions related to therapeutic peptides for cancer therapy” (THE UNIVERSITY OF CHICAGO, priority 2018, dated 2026)
